# The supplement of paper PMC9170038
# Test system: MS2 coat protein
# Assay: apparent KD of MS2 coat protein; designed switch direction (-1 OFF switch, 1 ON switch): -1; higher = weaker reporter binding
# Procedure, shortened: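 The apparent KD reported per design is the median over clusters of curve fits to normalised cluster fluorescence. The RNA switches were transcribed on Illumina chips by stalled E. coli RNA polymerase. SNAP-549-labelled MS2 coat protein was titrated from 0.7 or 1.5 nM, doubling up to 3 µM, in Tris-HCl pH 7.5 buffer containing KCl, MgCl2, BSA, DTT, tRNA and Tween-20, with no input, 200 uM small-molecule ligand, or an oligonucleotide input.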
# [1] = Eterna round: R95, input ligand: FMN 200 uM
# [2] = Eterna round: R95, input ligand: microRNA oligo, concentration not stated
# [3] = Eterna round: R95, input ligand: none
# [4] = input ligand: microRNA oligo, concentration not stated
Sequence,apparent KD of MS2 coat protein [1],apparent KD of MS2 coat protein [2],apparent KD of MS2 coat protein [3],apparent KD of MS2 coat protein (input ligand: FMN 200 uM),apparent KD of MS2 coat protein [4],apparent KD of MS2 coat protein (input ligand: none)
"AGUACUAACACGAGAGUGUUAGUACUAUAAGCUUGUGUUACAUGAGGAUCACCCAUGUCCUCAUAAGCUCGUCUUAA [Mat - Sensor v3 - Turn-off var 2 - D64] (puzzle: Sensor v3, turn-off variant 2)",33.3 nM,185 nM,35.8 nM,,,
GGAUCUUGGGUCAGGAUAUGCUGGUAUUUUUGCCAGCAGAAGGGACAUGAGGAUCACCCAUGUUCUUGGUUUUG [Magic-15] (puzzle: Brourd's mod of Exclusion 4),,11 nM,,,,
AGAUGGCGAGGAUAUACAUGAGGAUCACCCAUGUGAAUAAUAAUAGUGAGGAAGAAAAGUAGAAGGCGCUGUCA [Mat - Exclusion 3 - Mod of Salish D34] (puzzle: Exclusion 3),357 nM,42.1 nM,41.2 nM,,,
"CUCCGGCGUGUAGGAUAUGGAUCCGAUUAGGAUCCAGAAGGACAUGAGGAUCACCCAUGUACAUGUAAACGGUCGUCACCGGGC [salish99_ExNG1_r04_207] (Eterna round: R96, puzzle: Exclusion NG 1)",,,,134 nM,26.2 nM,61.3 nM
"UUCUUUAUACGAGGAUAUCAUACAUGAGGAUCACCCAUGUGGCUGGGUCUGUUUUUAUAUAUUAUUGAGAAGGCGUUUUUCUUU [JR_ExcNG2_Sub074] (Eterna round: R96, puzzle: Exclusion NG 2)",,,,197 nM,50.5 nM,86.7 nM
GCCUCACAUGAGGAUCACCCAUGUCAGGAUAUCUAACGCGAGGUGCAGGCACUUCGUGAGAGAAGGGACGUCAA [Iszabius] (puzzle: Exclusion 1),,19.4 nM,,,,
"UUUACAAGCUUUUGAUCCCACAUGAGGAUCACCCAUGUUGCUGCCGUGAGGUAGCUUUUAACAAAUGCUCGUCUUAU [JL TOV1 3.37] (Eterna round: R97, puzzle: Sensor, turn-off variant 1)",,,,590 nM,,690 nM
"UUGUAGUGAGGAUAUAUAUAGAGGUUUUAUUAAUUUUUAAAACUUGAGGAUCACCCAAGUAGAAGGCGCAAAGU [JR_Ex2_Sub071] (Eterna round: R97, puzzle: Exclusion 2)",,,,41.5 nM,,39.9 nM
"UUUCCACAUGAGGAUCACCCAUGUCAGGAUAUCUCCACAUCUUCGGAUGUGGCGUGUUAGAGAAGGGACAUGUA [EX1 A.22] (Eterna round: R97, puzzle: Exclusion 1)",,,,104 nM,,33.7 nM
"CCCGUGUUAGGAUAUAUGGAAGAGCGGACGGGCGCUCCAAGGUAGAAGGAACAUGAGGAUCACCCAUGUAAUAA [Teleerdion] (Eterna round: R97, puzzle: Exclusion 4)",,,,42.6 nM,,28.6 nM
AAGAGUGCAGGAUAUACUUGAUAGGGUAAGGUGAGUGAGGGACAUGAGGAUCACCCAUGUAGAAGGGCAGAGAG [JR_Exclu2_Sub058] (puzzle: Exclusion 2),25.8 nM,33.4 nM,26.3 nM,,,
"GGUACUAACACGAUAGUGUUAGUACUAUAAGCUUGUGUUACAUGAGGAUCACCCAUGUCCUCAUAAGCUCGUCUUAU [Mat - Sensor v3 - Turn-off var 2 - D77] (puzzle: Sensor v3, turn-off variant 2)",95.9 nM,50.2 nM,98.6 nM,,,
"GUCAGCUCGUGAGGAUAUAUAUAUACAUGAGGAUCACCCAUGUUAGAUCAGCUUCGGCAGUAUAUAUAGAAGGCACGAGCUGAC [ENG2/15-A1] (Eterna round: R96, puzzle: Exclusion NG 2)",,,,345 nM,78.9 nM,87.6 nM
GACUGUCUAGGAUAUGCGACGUUUUACAUGAGGAUCACCCAUGUUGUCUGCGUGUGUGUGGCAGAAGGAGACAAAC [Eses] (puzzle: Exclusion 5),,13.3 nM,,,,
"UUUAAGGUAAUUAAGAUCACAUGAGGAUCACCCAUGUAUAUAUAGGAUAUCAGCUCGUUUAGAGCUGAGAAGGAUAUAUACAUA [ExNG3/6-C2] (Eterna round: R96, puzzle: Exclusion NG 3)",,,,21.6 nM,178 nM,136 nM
"ACAUGAGGAUCACCCAUGUCCGGCUGGUCUGUUCCGGUUGUCGAGGAUAUAGUUCGGUGUUCGCGCUAGAAGGUGGGAGCUGGA [Aenatbe mod 54] (Eterna round: R96, puzzle: Exclusion NG 3)",,,,186 nM,103 nM,136 nM
"GUUGCUACUGAGGAUAUUAUACUACCCGACUGAUAAGAAGGCAGUACAUGAGGAUCACCCAUGUGGGUAGCCAC [Polaris13] (Eterna round: R97, puzzle: Exclusion 6)",,,,25.5 nM,,21.7 nM

Sequence,apparent KD of MS2 coat protein [1],apparent KD of MS2 coat protein [2],apparent KD of MS2 coat protein [3],apparent KD of MS2 coat protein (input ligand: FMN 200 uM),apparent KD of MS2 coat protein [4],apparent KD of MS2 coat protein (input ligand: none)
"AGUACUAACACGAAAGUGUUCGUACAAUAAGCUUGUGAAACAUGAGGAUCACCCAUGUCCUCAUAAGCUCGUCUUAU [salish99_TOv2_r3_037] (puzzle: Sensor v3, turn-off variant 2)",16.6 nM,810 nM,15.6 nM,,,
"AGCUGUGGCCGAGGAUAUCUGUUUCAUAAAACCGAAAUAUAAUCGGACAUGAGGAUCACCCAUGUAGAGAAGGCGGUCUCAGCA [Eli eng2 - 097] (Eterna round: R96, puzzle: Exclusion NG 2)",,,,,12 nM,
"GUUGUUUAUGUAGGAUAUGCCUGGCGUGCCUUAGCAGAAGGACAUGAGGAUCACCCAUGUAUUGCGGUCUGCGUUCAGAUCGCU [salish99_ExNG1_r4_021] (Eterna round: R96, puzzle: Exclusion NG 1)",,,,37 nM,25.1 nM,29.6 nM
"GGUACUAACACGAUAGUGUUAGUACUAUAAGCUUGUGUUACAUGAGGAUCACCCAUGUCCUCAUAGGCUCGUCUUAG [Mat - Sensor v3 - Turn-off var 2 - D85] (puzzle: Sensor v3, turn-off variant 2)",87.1 nM,23.1 nM,106 nM,,,
"ACAAUGUUAGGAUAUCUGACAACUAGCCUCGGCUAGUCGAAAGAGAAGGAACAUGAGGAUCACCCAUGUAGAUC [EX4 #71] (Eterna round: R97, puzzle: Exclusion 4)",,,,523 nM,,146 nM
"UUAGAUAGGUCAGGAUAUCGAUGAUUGAAUUGUAUGAUUUACAUGAGGAUCACCCAUGUUUUGUACGAGAAGGGACGUUAGAUU [JR_ExcNG2_Sub018] (Eterna round: R96, puzzle: Exclusion NG 2)",,,,26.7 nM,17.6 nM,37.2 nM
GUCACUAGAGGAUAUACAAUGGUAUAUGAUCCUAGAGACAAACAUGAGGAUCACCCAUGUAGAAGGCUAGUAAU [Exclusion 2 - 3] (puzzle: Exclusion 2),23.8 nM,178 nM,123 nM,,,
"GGGCGGCGGACCGUGGCUUUUUGCUCGUCUUGUGCUUCGACAUGAGGAUCACCCAUGUGGUGGUGGUCCGUUGUGGG [Grok-var2-14 mod JAL] (puzzle: Sensor v3, turn-off variant 2)",18.2 nM,12.6 nM,14.7 nM,,,
GGUUGACAUGAGGAUCACCCAUGUGAGGAUAUGCGAGAGAAAAAAGUGAGGAAGAAAUGCAGAAGGCGCUGUCG [salish99-ex1_r3_009] (puzzle: Exclusion 1),127 nM,81.5 nM,433 nM,,,
"CUCAUGCCUGAGGAUAUGCUGUACAAAAGUACUGCAGAAGGUGGAACAUGAGGAUCACCCAUGUGGCGAAAGCC [Omei Ex G4] (Eterna round: R97, puzzle: Exclusion 6)",,,,253 nM,,66.1 nM
GGUUGGCGAGGAUAUACAUGAGGAUCACCCAUGUGAGAGAAACAAGUGAGGAAGAAAAGUAGAAGGCGCUGACG [salish99_ex3_r3_023] (puzzle: Exclusion 3),112 nM,88.1 nM,37.1 nM,,,
GGAAAGGUAGGAUAUACGAAGAAAAAGGGUAGAAUAAUAACACAUGAGGAUCACCCAUGUAGAAGGACCAAAUG [Mat - Exclusion 2 - Mod of my Tesla design - D7] (puzzle: Exclusion 2),71.1 nM,37.8 nM,29 nM,,,
"GUAACAUGCUGGUGAUCAUACAUGAGGAUCACCCAUGUAACAAGCUUUUUGUUCGUCUUAUAAGAUCACCAGCAUGU [Stov1/9-B2] (Eterna round: R97, puzzle: Sensor, turn-off variant 1)",,,,18.4 nM,,19.8 nM
"CGACCACAUGAGGAUCACCCAUGUCAGGAUAUGAGAGCCUUACGAAAGAGACGGCAGCUUAGAAGGGAUGCGGC [Eternabot (L1) Solution 74] (Eterna round: R97, puzzle: Exclusion 1)",,,,23.3 nM,,26.9 nM
GGUGCGUUUGUGAGGAUAUGCUGGUCCUUGGGUCAGCAGAAGGCACAUGAGGAUCACCCAUGUGGUGUCGUACC [salish99_Bmod_Ex4_032] (puzzle: Brourd's mod of Exclusion 4),,178 nM,,,,
UUUUAACAUGAGGAUCACCCAUGUAAGGAUAUGCUAUUUUUUUUUUUUUUUUUUUUUUGCAGAAGGUACAUUUU [My solution] (puzzle: Exclusion 1),33.8 nM,21.3 nM,21.6 nM,,,
"GCUGGUCAAGGAUAUACAUUCGUGCUUCGGCACGUAAGAUCACAUGAGGAUCACCCAUGUAGAAGGUGACCAGC [E2/5-C1] (Eterna round: R97, puzzle: Exclusion 2)",,,,700 nM,,112 nM
